Earlier results on three substances are cited in PMC8315802.

Where two headings read alike, the source gives them in different places.

The target of data set [1] is actin filament (Oryctolagus cuniculus) (UniProt P68135).
The target is the same in data set [2]. This is another data set of the same source.
The target is the same in data set [3]. The source holds these as a separate data set.

What is called Kd is the equilibrium constant for the complex coming apart. With utrophin CHD (from UniProt P46939), in data set [1], the Kd was 1.5 µM.

α-actinin CHD (from UniProt P05094): in data set [2], the Kd was 4.7 µM.

Consider Rng2 1-189 (from UniProt O14188), for which the Kd in data set [3] was 0.9 µM.
